Test results as given in US20210230254A1.
Where two headings read alike, the source gives them in different places.

How the values were obtained:
[1] = biological target: 2CC-core (HIV-1 YU2) (UniProt P35961); test: SPR, 2CC-core on chip, IgG injected
[2] = biological target: 2CC-core (HIV-1 YU2) (UniProt P35961)

Chain of NIH45-46 (antibody) (VH): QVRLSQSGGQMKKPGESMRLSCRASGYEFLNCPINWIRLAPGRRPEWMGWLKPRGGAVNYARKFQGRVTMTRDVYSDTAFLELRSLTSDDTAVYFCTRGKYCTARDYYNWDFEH
Chain of NIH45-46 (antibody) (VL): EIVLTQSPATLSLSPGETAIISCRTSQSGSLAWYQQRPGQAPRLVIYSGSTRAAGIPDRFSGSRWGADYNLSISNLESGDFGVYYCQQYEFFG
Chain of 3BNC117 (antibody) (VH): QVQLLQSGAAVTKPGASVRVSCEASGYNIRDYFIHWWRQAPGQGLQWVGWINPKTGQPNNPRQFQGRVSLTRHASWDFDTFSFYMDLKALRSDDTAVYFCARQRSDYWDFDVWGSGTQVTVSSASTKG
Chain of 3BNC117 (antibody) (VL): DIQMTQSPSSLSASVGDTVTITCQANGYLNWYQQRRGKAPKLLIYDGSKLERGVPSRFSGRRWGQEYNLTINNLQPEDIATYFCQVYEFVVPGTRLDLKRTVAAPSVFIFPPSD
Chain of 8ANC195 (antibody) (V domain): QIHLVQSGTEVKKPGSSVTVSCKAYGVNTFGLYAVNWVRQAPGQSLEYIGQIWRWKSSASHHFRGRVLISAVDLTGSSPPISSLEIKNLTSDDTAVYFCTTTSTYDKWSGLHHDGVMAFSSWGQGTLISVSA
Chain of 8ANC195 (antibody) (VL): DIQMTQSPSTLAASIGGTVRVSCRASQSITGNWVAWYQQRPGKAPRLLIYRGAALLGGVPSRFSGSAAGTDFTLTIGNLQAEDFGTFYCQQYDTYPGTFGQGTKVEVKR
Chain of 3BNC60 (antibody) (VH): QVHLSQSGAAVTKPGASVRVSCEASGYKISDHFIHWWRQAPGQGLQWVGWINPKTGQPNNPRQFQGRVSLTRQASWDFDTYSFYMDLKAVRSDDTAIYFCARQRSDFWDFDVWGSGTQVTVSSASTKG
Chain of 3BNC60 (antibody) (VL): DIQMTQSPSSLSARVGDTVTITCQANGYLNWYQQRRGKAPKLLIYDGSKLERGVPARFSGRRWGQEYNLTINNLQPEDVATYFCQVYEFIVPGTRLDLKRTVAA
Chain of 12A12 (antibody) (VH): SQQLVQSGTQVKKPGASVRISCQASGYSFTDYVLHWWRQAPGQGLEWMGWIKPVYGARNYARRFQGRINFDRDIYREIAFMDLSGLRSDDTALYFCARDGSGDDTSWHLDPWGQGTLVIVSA
Chain of 12A12 (antibody) (VL): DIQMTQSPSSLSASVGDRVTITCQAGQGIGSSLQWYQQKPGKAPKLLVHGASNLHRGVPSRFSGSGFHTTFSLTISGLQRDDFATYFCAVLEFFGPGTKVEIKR
Chain of 3BNC55 (antibody) (V domain): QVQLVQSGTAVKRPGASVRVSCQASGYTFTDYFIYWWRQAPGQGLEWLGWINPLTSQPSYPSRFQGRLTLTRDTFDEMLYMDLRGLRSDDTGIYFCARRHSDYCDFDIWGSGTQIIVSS
Chain of 3BNC55 (antibody) (VL): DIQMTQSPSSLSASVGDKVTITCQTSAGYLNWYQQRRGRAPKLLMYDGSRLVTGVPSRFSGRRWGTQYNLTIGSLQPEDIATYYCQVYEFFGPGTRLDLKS
Chain of 12A21 (antibody) (VH): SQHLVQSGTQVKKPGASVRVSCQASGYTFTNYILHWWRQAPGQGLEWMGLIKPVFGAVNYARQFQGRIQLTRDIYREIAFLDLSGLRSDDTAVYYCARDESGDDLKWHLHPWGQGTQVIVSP
Chain of 12A21 (antibody) (VL): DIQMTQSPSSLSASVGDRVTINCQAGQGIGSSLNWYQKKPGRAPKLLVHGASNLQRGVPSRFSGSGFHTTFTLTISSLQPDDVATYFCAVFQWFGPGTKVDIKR
Chain of 3BNC156 (antibody) (VH): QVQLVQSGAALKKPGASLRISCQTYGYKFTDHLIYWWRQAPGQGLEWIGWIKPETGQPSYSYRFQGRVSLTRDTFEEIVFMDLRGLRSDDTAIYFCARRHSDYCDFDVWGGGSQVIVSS
Chain of 3BNC156 (antibody) (VL): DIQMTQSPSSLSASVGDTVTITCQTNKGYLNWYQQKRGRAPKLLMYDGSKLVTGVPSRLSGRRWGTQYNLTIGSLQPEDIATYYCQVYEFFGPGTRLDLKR
Chain of 3BNC66 (antibody) (V domain): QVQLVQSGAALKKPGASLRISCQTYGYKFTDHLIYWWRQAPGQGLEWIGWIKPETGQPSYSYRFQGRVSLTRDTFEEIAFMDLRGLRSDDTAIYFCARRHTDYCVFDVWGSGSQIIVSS
Chain of 3BNC66 (antibody) (VL): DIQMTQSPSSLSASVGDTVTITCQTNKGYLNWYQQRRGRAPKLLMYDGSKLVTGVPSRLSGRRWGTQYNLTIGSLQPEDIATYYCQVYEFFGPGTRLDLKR

Substance 1B2530 (antibody) has a Kd [1] of 5.9 nM, a koff [1] of 0.000402 s⁻¹ and a kon [1] of 68300 M⁻¹ s⁻¹.

1NC9 (antibody) showed a Kd [1] of 4.61 nM, a koff [1] of 0.000236 s⁻¹ and a kon [1] of 51100 M⁻¹ s⁻¹.

Substance 3BNC55 (antibody) has a Kd [1] of 25.7 nM, a koff [2] of 0.000815 s⁻¹ and a kon [2] of 31600 M⁻¹ s⁻¹.

3BNC60 (antibody) gave a Kd [1] of 54.5 nM, a koff [1] of 0.00164 s⁻¹ and a kon [1] of 30200 M⁻¹ s⁻¹.

3BNC66 (antibody) was tested, and the Kd [1] was 33.6 nM, the koff [1] was 0.00133 s⁻¹ and the kon [1] was 39600 M⁻¹ s⁻¹.

In the case of 3BNC117 (antibody), the Kd [1] is reported as 36.8 nM, the koff [2] is reported as 0.00149 s⁻¹ and the kon [2] is reported as 40500 M⁻¹ s⁻¹.

Work on 3BNC156 (antibody) yielded a Kd [1] of 81.2 nM, a koff [1] of 0.00153 s⁻¹ and a kon [1] of 18800 M⁻¹ s⁻¹.

8ANC131 (antibody) showed a Kd [1] of 66.1 nM, a koff [1] of 0.00323 s⁻¹ and a kon [1] of 48800 M⁻¹ s⁻¹.

8ANC134 (antibody) showed a Kd [1] of 46.1 nM, a koff [1] of 0.000957 s⁻¹ and a kon [1] of 20800 M⁻¹ s⁻¹.

With 8ANC195 (antibody) the Kd [1] was 54.7 nM, the koff [1] was 0.00132 s⁻¹ and the kon [1] was 24100 M⁻¹ s⁻¹.

12A12 (antibody) gave a Kd [1] of 0.0269 nM, a koff [1] of 1.7e-06 s⁻¹ and a kon [1] of 63300 M⁻¹ s⁻¹.

For 12A21 (antibody), the Kd [1] was 1.81 nM, the koff [1] was 0.00033 s⁻¹ and the kon [1] was 182000 M⁻¹ s⁻¹.

NIH45-46 (antibody) gave a Kd [1] of 4.4 nM, a koff [1] of 0.000494 s⁻¹ and a kon [1] of 112000 M⁻¹ s⁻¹.
